Publication PMC2944331, “Similarity of Recombinant Human Perlecan Domain 1 by Alternative Expression Systems Bioactive Heterogenous Recombinant Human Perlecan D1” (BMC Biotechnology, 2010)

Experiments:
Assay in all cases: far-Western, overlay or dot blot; growth factor dot blot: 500 ng growth factor bound to nitrocellulose; 1 μg/ml rhPln.198, rhPln.247 or heparinase III digested rhPln.247 in PBS-Tween overnight at 4°C; detected with anti-perlecan domain 1 mAb CSI 001-71
Details in all cases: both partners purified
[1] = target: T1, recombinant human perlecan domain 1, amino acids 1-247 (rhPln.247), enriched high Mr glycosylated pool (human, UniProt P98160 22-247, glycosaminoglycan chains, either heparan sulfate (about 1/3 of the pool) or chondroitin sulfate (about 2/3), at the three SGD linkage sites)
T1 construct: signal peptide in the construct; Heterogeneous proteoglycan pool; also called rhPln.D1; Pln.D1
T1 sequence (P98160 22-247): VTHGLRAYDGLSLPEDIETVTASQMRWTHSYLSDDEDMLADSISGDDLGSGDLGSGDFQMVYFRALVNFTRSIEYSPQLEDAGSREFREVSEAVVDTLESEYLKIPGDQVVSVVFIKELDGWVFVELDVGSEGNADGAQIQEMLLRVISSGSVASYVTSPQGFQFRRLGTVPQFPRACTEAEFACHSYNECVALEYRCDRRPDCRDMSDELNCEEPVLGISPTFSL

[2] = target: T2, recombinant human perlecan domain 1, amino acids 1-198 (rhPln.198), enriched high Mr glycosylated pool (human, UniProt P98160 22-198, glycosaminoglycan chains, either heparan sulfate (about 1/3 of the pool) or chondroitin sulfate (about 2/3), at the three SGD linkage sites)
T2 construct: signal peptide in the construct; Heterogeneous proteoglycan pool with minor contaminants (bovine lumican, haemoglobin, BSA); also called rhPln.D1; Pln.D1
T2 sequence (P98160 22-198): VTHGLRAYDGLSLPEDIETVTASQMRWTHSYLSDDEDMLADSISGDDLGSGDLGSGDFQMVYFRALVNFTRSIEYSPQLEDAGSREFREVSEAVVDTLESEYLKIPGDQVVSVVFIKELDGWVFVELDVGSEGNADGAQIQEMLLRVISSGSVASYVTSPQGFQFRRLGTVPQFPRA

[3] = target: T3, rhPln.247 digested with heparinase III (human, UniProt P98160 22-247, heparan sulfate chains digested with heparinase III; chondroitin sulfate chains not digested)
T3 construct: signal peptide in the construct; Same polypeptide as m2; Only the glycosaminoglycan chains differ; also called heparinise III digested rhPln.247; rhPln.247 pre-digested with heparinase III; source: HEK 293 cells, enriched high Mr pool, then digested with heparinase III (1 mU/μg, overnight, 37°C)
T3 sequence (P98160 22-247): as the sequence (P98160 22-247) above

Measured: binding result

B1: recombinant human bone morphogenetic protein 6 (rhBMP-6) (ligand)
chain: SASSRRRQQSRNRSTQSQDVARVSSASDYNSSELKTACRKHELYVSFQDLGWQDWIIAPKGYAANYCDGECSFPLNAHMNATNHAIVQTLVHLMNPEYVPKPCCAPTKLNAISVLYFDDNSNVILKKYRNMVVRACGCH
notes: human bone morphogenetic protein 6, recombinant
binds: all assays above

B2: recombinant human bone morphogenetic protein 7 (rhBMP-7) (ligand)
chain: STGSKQRSQNRSKTPKNQEALRMANVAENSSSDQRQACKKHELYVSFRDLGWQDWIIAPEGYAAYYCEGECAFPLNSYMNATNHAIVQTLVHFINPETVPKPCCAPTQLNAISVLYFDDSSNVILKKYRNMVVRACGCH
notes: human bone morphogenetic protein 7, recombinant
binds: all assays above
